Experimental data from US20200239537A1.
Where no end group is shown, it is not given here. [ ]: non-standard residue; d: D form. Phe(4-Br) = N[C@@H](Cc1ccc(Br)cc1)C(=O)O; pGlu = O=C1CC[C@@H](C(=O)O)N1; Nle = CCCC[C@H](N)C(=O)O; Aib = CC(C)(N)C(=O)O

target: wild-type rat apelin receptor tagged at its C-terminus with EGFP (rat) (UniProt Q9JHG3); assay: displacement of 0.2 nM [125I]-pyr-1-apelin-13; membranes of CHO cells expressing rat apelin receptor-EGFP
Sequence (Q9JHG3 whole entry): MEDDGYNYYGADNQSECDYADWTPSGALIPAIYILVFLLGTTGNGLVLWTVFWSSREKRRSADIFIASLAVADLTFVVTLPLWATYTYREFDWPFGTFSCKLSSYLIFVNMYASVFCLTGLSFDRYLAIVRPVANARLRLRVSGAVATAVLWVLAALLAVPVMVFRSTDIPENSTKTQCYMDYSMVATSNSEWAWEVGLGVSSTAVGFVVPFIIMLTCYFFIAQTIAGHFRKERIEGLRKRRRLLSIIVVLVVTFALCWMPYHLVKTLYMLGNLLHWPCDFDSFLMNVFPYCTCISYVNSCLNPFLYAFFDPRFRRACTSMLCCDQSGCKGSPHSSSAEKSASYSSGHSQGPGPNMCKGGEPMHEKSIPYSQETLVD

Ki	factor of weaker affinity compared to 1	Binder
0.1 nM	–	XRPRXSHKGPXXX (pGlu at 1; NMeLeu at 5; Nle at 11; Aib at 12; paraBrPhe at 13) [N-MeLeu5-pyr-1-apelin-13 A2 (10)]
0.13 nM	–	XRPRXSHKGPXXX (pGlu at 1; azaLeu at 5; Nle at 11; Aib at 12; paraBrPhe at 13) [azaLeu5-pyr-1-apelin-13 A2 (18)]
0.12 nM	–	XRPRXSHKGPXXX (pGlu at 1; D-Leu at 5; Nle at 11; Aib at 12; paraBrPhe at 13) [D-Leu5-pyr-1-apelin-13 A2 (8)]
0.17 nM	–	XRPRXSHKGPXXX (pGlu at 1; αMeLeu at 5; Nle at 11; Aib at 12; paraBrPhe at 13) [α-MeLeu5-pyr-1-apelin-13 A2 (14)]
0.56 nM	2 fold	XRPXLSHKGPXXX (pGlu at 1; αMeArg at 4; Nle at 11; Aib at 12; paraBrPhe at 13) [α-MeArg4-pyr-1-apelin-13 A2 (12)]
1 nM	3 fold	[pGlu]RP[azaArg]LSHKGP[Nle][Aib][Phe(4-Br)] [azaArg4-pyr-1-apelin-13 A2 (16)]
